From paper PMC7801515
pKd: −log10 of the molar value. Several values for one entry are separate records, joined by “and”; a condition that tells them apart may be missing. Equal values may be shown once. Read-outs that look alike come from different tables or passages of the source.

Experiments:
Test in all cases: SPR
[1] = biological target: SARS-CoV-2 receptor-binding domain (RBD), residues Arg319 to Lys529 (SARS-CoV-2) (UniProt P0DTC2)
[2] = biological target: SARS-CoV-2 receptor-binding domain (RBD), residues Arg319 to Lys529 (SARS-CoV-2) (UniProt P0DTC2); remark: listed apart in the source
[3] = biological target: P2B-2F6 monoclonal antibody (human)

**Q.** Which results are given for P2B-2F6 monoclonal antibody?
**A.** pKd [1]: 7.72 and 7.86 and 7.85; koff [1]: 0.102 s⁻¹ and 0.0911 s⁻¹

**Q.** Which results are given for P2C-1F11 monoclonal antibody?
**A.** pKd [1]: 8.62; pKd [2]: 8.96 and 8.57 and 8.86; koff [2]: 0.00263 s⁻¹ and 0.00303 s⁻¹ and 0.00213 s⁻¹

**Q.** How did the pKd [3] turn out when “SARS-CoV-2 receptor-binding domain (RBD), residues Arg319 to Lys529 (from UniProt P0DTC2 319-529) (domain or fragment)” was run?
**A.** Its pKd is 7.81.
